From PMC11467351

Biological target: ButCD complex of B. fragilis GS077 (B. fragilis GS077 (endogenous))
Test: cryo-EM structure

Substance: ButCD complex of B. fragilis GS077
- stoichiometry N: 2
